Measured values as given in article PMC3798688, “A Structural Basis for BRD2/4-Mediated Host Chromatin Interaction and Oligomer Assembly of Kaposi Sarcoma-Associated Herpesvirus and Murine Gammaherpesvirus LANA Proteins” (PLoS Pathogens, 2013).

B1: kLANA(996–1153) (domain or fragment)
chain: GSGVRMRRVPVTHPKKPHPRYQQPPVPYRQIDDCPAKARPQHIFYRRFLGKDGRRDPKCQWKFAVIFWGNDPYGLKKLSQAFQFGGVKAGPVSCLPHPGPDQSPITYCVYVYCQNKDTSKKVQMARLAWEASHPLAGNLQSSIVKFKKPLPLTQPGENQG
notes: source: E. coli BL21(DE3), purified (Ni-NTA with guanidine gradient, thrombin cleavage)

Tests used:
crystal structure = target: the molecule itself; experiment: crystal structure
[1] = target: the molecule itself; experiment: asymmetric field flow fractionation with multi-angle static light scattering; 40 µg protein per run; 10 mM bis-tris-Cl pH 6.5, 50 mM NaCl, 0.01% NaN3
kLANA(996–1153) = target: B1; experiment: NMR titration; details: both partners purified

Row | Binder | stoichiometry N (crystal structure) | stoichiometry N [1] | binding result (kLANA(996–1153))
1 | kLANA(1013–1149) (domain or fragment, source: E. coli BL21(DE3), purified (Ni-NTA with guanidine gradient, thrombin cleavage)) GSRYQQPPVPYRQIDDCPAKARPQHIFYRRFLGKDGRRDPKCQWKFAVIFWGNDPYGLKKLSQAFQFGGVKAGPVSCLPHPGPDQSPITYCVYVYCQNKDTSKKVQMARLAWEASHPLAGNLQSSIVKFKKPLPLTQPG | 10 | 2 | –
2 | B1 | 8 | – | –
3 | 15N-BRD2 ET(632–713), with N-terminal GSGS (domain or fragment, also called 15N-BRD2(632–713); source: E. coli BL21(DE3), purified (Ni-NTA with guanidine gradient, thrombin cleavage)) GSGSDSEEEEESRPMSYDEKRQLSLDINKLPGEKLGRVVHIIQAREPSLRDSNPEEIEIDFETLKPSTLRELERYVLSCLRKKPRK | – | – | binds
4 | mLANA(124–260) (domain or fragment, source: E. coli BL21(DE3), purified (Ni-NTA with guanidine gradient, thrombin cleavage)) GSKRYSRYQKPHNPSDPLPKKYQGMRRHLQVTAPRLFDPEGHPPTHFKSAVMFSSTHPYTLNKLHKCIQSKHVLSTPVSCLPLVPGTTQQCVTYYLLSFVEDKKQAKKLKRVVLAYCEKYHSSVEGTIVKAKPYFPLPE | 2 | – | –
